B1: oxidized TRC40 from Danio rerio (natural protein)
chain: not shown
modifications: oxidized cysteines: intra- and intermolecular disulfide bonds (positions not given)
B2: oxidized Get3 from Saccharomyces cerevisiae (natural protein, UniProt Q12154 1-354, looked up)
chain: MDLTVEPNLHSLITSTTHKWIFVGGKGGVGKTTSSCSIAIQMALSQPNKQFLLISTDPAHNLSDAFGEKFGKDARKVTGMNNLSCMEIDPSAALKDMNDMAVSRANNNGSDGQGDDLGSLLQGGALADLTGSIPGIDEALSFMEVMKHIKRQEQGEGETFDTVIFDTAPTGHTLRFLQLPNTLSKLLEKFGEITNKLGPMLNSFMGAGNVDISGKLNELKANVETIRQQFTDPDLTTFVCVCISEFLSLYETERLIQELISYDMDVNSIIVNQLLFAENDQEHNCKRCQARWKMQKKYLDQIDELYEDFHVVKMPLCAGEIRGLNNLTKFSQFLNKEYNPITDGKVIYELEDKE
modifications: oxidized cysteines (positions not given)
B3: reduced Get3 from Saccharomyces cerevisiae (natural protein, UniProt Q12154 1-354, looked up)
chain: B2 chain
B4: reduced TRC40 from Danio rerio (natural protein)
chain: not shown

Molecular target: the molecule itself
Assay: SEC

| Protein | stoichiometry N | binding result |
| --- | --- | --- |
| B1 | ≥ 4 | – |
| B2 | – | binds |
| B3 | – | binds |
| B4 | 2 | – |

From paper doi:10.1101/2024.07.10.602939 (bioRxiv, 2024)
